Measurements published in patent US20250011427A1 (CONCEPT TO MEDICINE BIOTECH, published 2025).

B1: Hu155A9B1-1 (antibody, V domains shown)
VH: EVQLQESGPGLVKPSETLSLTCTVSGGSISSYNVHWIRQPPGKGLEWIGRVRYNGDTSYNSALKSRVTISVDTSKNQFSLKLSSVTAADTAVYYCARGPYGGSSEPLFDYWGQGTMVTVSS
VL: DIQMTQSPSSLSASVGDRVTITCKASQNINKYLNWYQQKPGKAPRLLIYTTNNLQTGVPSRFSGSGSGTDFTLTISSLQPEDFATYYCLQHNSGYTFGQGTKLEIK
B2: Hu155A9B1-13 (antibody, V domains shown)
VH: EVQLQESGPGLVKPSETLSLTCTVSGGSISSYNVHWIRQPPGKGLEWIGRVRYNGDTSYNSALKSRVTISVDTSKNQFSLKLSSVTAADTAVYYCARGPYGGSSEPLFDYWGQGTMVTVSS
VL: DIQMTQSPSSLSASVGDRVTITCKASQNINKYLNWFQQKPGKAPRLLIYTTNNLQTGIPSRFSGSGSGTDFTLTISSLQPEDFATYFCLQHNSGYTFGQGTKLEIK
B3: SP34 monoclonal antibody (antibody, human IgG1, lambda, N297A, V domains shown)
VH: EVQLVESGGGLVQPKGSLKLSCAASGFTFNTYAMNWVRQAPGKGLEWVARIRSKYNNYATYYADSVKDRFTISRDDSQSILYLQMNNLKTEDTAMYYCVRHGNFGNSYVSWFAYWGQGTLVTVSA
VL: QAVVTQESALTTSPGETVTLTCRSSTGAVTTSNYANWVQEKPDHLFTGLIGGTNKRAPGVPARFSGSLIGDKAALTITGAQTEDEAIYFCALWYSNLWVFGGGTKLTVLG
notes: Benchmark, bought (Biointron, B6762)

Experiments:
[1] = target: human CD3 on cells (human PBMC; Jurkat-CD3-NFAT and TCR/CD3 Effector reporter cells) (human) (UniProt P07766); assay: cell-based or functional assay
human CD3 on cells (human PBMC; Jurkat-CD3-NFAT and TCR/CD3 Effector reporter cells) (human), sequence (P07766 23-207, chain 1 of 3): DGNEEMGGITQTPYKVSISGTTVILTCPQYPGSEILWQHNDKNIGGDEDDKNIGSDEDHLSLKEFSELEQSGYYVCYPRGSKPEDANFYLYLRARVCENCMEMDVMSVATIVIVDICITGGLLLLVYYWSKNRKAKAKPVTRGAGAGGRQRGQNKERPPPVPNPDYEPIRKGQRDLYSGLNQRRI
human CD3 on cells (human PBMC; Jurkat-CD3-NFAT and TCR/CD3 Effector reporter cells) (human), sequence (P04234 22-171, chain 2 of 3, further chain): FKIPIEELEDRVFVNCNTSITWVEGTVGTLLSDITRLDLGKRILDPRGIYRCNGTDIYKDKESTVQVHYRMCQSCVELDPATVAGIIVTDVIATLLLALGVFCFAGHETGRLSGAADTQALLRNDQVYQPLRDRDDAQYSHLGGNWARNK
human CD3 on cells (human PBMC; Jurkat-CD3-NFAT and TCR/CD3 Effector reporter cells) (human), sequence (P09693 23-182, chain 3 of 3, further chain): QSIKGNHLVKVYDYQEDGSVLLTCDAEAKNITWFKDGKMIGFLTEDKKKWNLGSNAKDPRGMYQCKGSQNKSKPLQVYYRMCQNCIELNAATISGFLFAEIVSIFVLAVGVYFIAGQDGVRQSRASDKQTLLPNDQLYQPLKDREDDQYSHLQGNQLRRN

[2] = target: T1, human CD3 on cells (human PBMC; Jurkat-CD3-NFAT and TCR/CD3 Effector reporter cells) (human, UniProt P07766 23-207; P04234 22-171; P09693 23-182); assay: FACS on human PBMC, PE goat anti-human IgG Fc secondary antibody, geometric mean fluorescence
T1 construct: whole, on cells; The CD3 complex as carried by T cells; also called huPBMC; CD3 receptor
T1 sequence (P07766 23-207, chain 1 of 3): as the sequence (P07766 23-207, chain 1 of 3) above
T1 sequence (P04234 22-171, chain 2 of 3): as the sequence (P04234 22-171, chain 2 of 3, further chain) above
T1 sequence (P09693 23-182, chain 3 of 3): as the sequence (P09693 23-182, chain 3 of 3, further chain) above
Description: FACS was used to evaluate the binding activity of 153A6B1, 155A9B1, and 192A7B9 chimeric mAbs on human or cynomolgus PBMC. SP34 (Biointron, B6762) and OKT3 (Biointron, B6928) served as the benchmark controls.
Briefly, cynoPBMCs were first incubated with 3-fold serially diluted 153A6B1, 155A9B1, and 192A7B9 chimeric mAbs starting at 10 nM at 4° C. for 30 mins. While huPBMCs were incubated with 4-fold serially diluted 153A6B1, 155A9B1, and 192A7B9 chimeric mAbs starting at 10 nM at 4° C. for 30 mins. After washing by PBS, PE Goat anti-Human IgG Fc Secondary Antibody (eBioscience™, Invitrogen) was added to each well and incubated at 4° C. for 30 mins. Samples were washed twice with FACS buffer. The mean florescence intensity (MFI) of PE was evaluated by MACSQuant Analyzer 16.

Row | Binder | % of SP34 [1] [%] | EC50 (read off the curve) [2] [pM]
1 | B1 | 14.2 | 
2 | B2 | 18.4 | 
3 | B3 |  | ~300
